Test [1] concerns the target T1, Preproinsulin (PPI) peptide on HLA-DRA*01:01 / HLA-DRB1*04:01 (human).
T1 peptide: SLQPLALEGSLQKRG
Briefly: proliferation.

For test [2], the target named is T2, IGRP (islet-specific glucose-6-phosphatase-related protein) peptide on HLA-DRA*01:01 / HLA-DRB1*04:01 (human). As to the kind of experiment: proliferation.
For test [3], the target named is T3, hypothetical protein V495_01361 [Pseudogymnoascus sp. VKM F-4514 (FW-929)] (IGRP305_324_path15) peptide on … (human).
T3 peptide: SAMFLDIPTHPEEHS
As to the kind of experiment: activation reporter or marker.

Test [4] deals with T4, hypothetical protein KMI_05g09430 [Encephalitozoon hellem] (IGRP305_324_path18) peptide on HLA-DRA*01:01 / … (human).
T4 peptide: LSEFLKIPNHEITLL
Briefly: activation reporter or marker.

Test [5] concerns the target T5, hypothetical protein T551_03071 [Pneumocystis jirovecii RU7] (IGRP305_324_path17) peptide on HLA-DRA*01:01 / … (human).
T5 peptide: FTDFLNIPSYEELND
As to the kind of experiment: activation reporter or marker.

Test [6] deals with T6, exodeoxyribonuclease V subunit beta [Chlamydia caviae] (IGRP305_324_path12) peptide on HLA-DRA*01:01 / … (human).
T6 peptide: CSPFLQIPSYEPIEY
Briefly: activation reporter or marker.

For test [7], the target named is T7, hypothetical protein GX51_07420 [Blastomyces parvus] (IGRP305_324_path16) peptide on HLA-DRA*01:01 / … (human).
T7 peptide: KYEFLPIPTYEEATS
As to the kind of experiment: activation reporter or marker.

Test [8] has as its target T8, DUF4435 domain-containing protein [Bacillus toyonensis] (IGRP305_324_path5) peptide on HLA-DRA*01:01 / … (human).
T8 peptide: YDEVLQIPTHQENTQ
Briefly: activation reporter or marker.

Test [9] concerns the target T9, hypothetical protein ECU05_1220 [Encephalitozoon cuniculi GB-M1] (IGRP305_324_path19) peptide on … (human).
T9 peptide: QQKFLKNIDTHEEAE
As to the kind of experiment: activation reporter or marker.

The target in test [10] is T10, TPA: UDP-N-acetylglucosamine--N-acetylmuramyl-(pentapeptide) pyrophosphoryl-undecaprenol N-acetylglucosamine … (human).
T10 peptide: AARFLHIPYYTHECD
As to the kind of experiment: activation reporter or marker.

Test [11] addresses T11, undecaprenyldiphospho-muramoylpentapeptide beta-N-acetylglucosaminyltransferase [Treponema sp.] … (human).
T11 peptide: AAKFLHIPVFTHECD
As to the kind of experiment: activation reporter or marker.

In test [12] the target is T12, UDP-N-acetylglucosamine--N-acetylmuramyl-(pentapeptide) pyrophosphoryl-undecaprenol N-acetylglucosamine … (human).
T12 peptide: AASFLHIPYFTHECD
As to the kind of experiment: activation reporter or marker.

The target in test [13] is T13, WD domain, G-beta repeat-containing protein [Toxoplasma gondii ARI] (IGRP305_324_path20) peptide on … (human).
T13 peptide: ESLFLQLSTHTEASA
As to the kind of experiment: activation reporter or marker.

The target in test [14] is T2, IGRP (islet-specific …). Briefly: upper end of the range; CD154 surface expression intensity; LV-transduced CD4+ T cells 3:1 with peptide-pulsed HLA-DR4 K562 cells, 20 h; full-length, on cells.
Test [15] concerns the target T2, IGRP (islet-specific …). As to the kind of experiment: lower end of the range; % CD137-expressing cells; LV-transduced CD4+ T cells 3:1 with peptide-pulsed HLA-DR4 K562 cells, 20 h; full-length, on cells.
In test [16] the target is T2, IGRP (islet-specific …). As to the kind of experiment: upper end of the range; % CD137-expressing cells; LV-transduced CD4+ T cells 3:1 with peptide-pulsed HLA-DR4 K562 cells, 20 h; full-length, on cells.
Test [17] has as its target T2, IGRP (islet-specific …). Briefly: lower end of the range; CD154 surface expression intensity; LV-transduced CD4+ T cells 3:1 with peptide-pulsed HLA-DR4 K562 cells, 20 h; full-length, on cells.

B1: T1D4 TCR (TCR, V domains shown)
Valpha: KDQVFQPSTVASSEGAVVEIFCNHSVSNAYNFFWYLHFPGCAPRLLVKGSKPSQQGRYNMTYERFSSSLLILQVREADAAVYYCAVEDLNQAGTALIFGKGTTLSVSS
Vbeta: KAGVTQTPRYLIKTRGQQVTLSCSPISGHRSVSWYQQTPGQGLQFLFEYFSETQRNKGNFPGRFSGRQFSNSRSEMNVSTLELGDSALYLCASSLALGQGNQQFFGPGTRLTVL
With B1, the binding result (in test [1]; with IGRP (islet-specific …) [2]) was “no recognition” each time.

B2: T1D2 TCR (TCR, V domains shown)
Valpha: DQQVKQNSPSLSVQEGRISILNCDYTNSMFDYFLWYKKYPAEGPTFLISISSIKDKNEDGRFTVFLNKSAKHLSLHIVPSQPGDSAVYFCAATRTSGTYKYIFGTGTRLKVLA
Vbeta: NAGVTQTPKFRILKIGQSMTLQCTQDMNHNYMYWYRQDPGMGLKLIYYSVGAGITDKGEVPNGYNVSRSTTEDFPLRLELAAPSQTSVYFCASSPWGAGGTDTQYFGPGTRLTVL
Take B2: the binding result in [3], in test [4], in [5], in test [6], in test [7] and in test [8] was “no recognition” each time. In addition, the binding result in test [9], in test [10], in test [11], in [12] and in [13] was “no recognition” each time. The EC50 of peptide with IGRP (islet-specific …) [14] was at most 0.3 µg/mL; with IGRP (islet-specific …) [15], at least 0.03 µg/mL; with IGRP (islet-specific …) [16] it was at most 0.1 µg/mL; in the test with IGRP (islet-specific …) [17], at least 0.1 µg/mL.

The values above are taken from patent US20250213686A1 (published 2025).
